B1: Cyclin-Y (Homo sapiens), Q8ND76-1 (parent)
chain: MGNTTSCCVSSSPKLRRNAHSRLESYRPDTDLSREDTGCNLQHISDRENIDDLNMEFNPSDHPRASTIFLSKSQTDVREKRKSLFINHHPPGQIARKYSSCSTIFLDDSTVSQPNLKYTIKCVALAIYYHIKNRDPDGRMLLDIFDENLHPLSKSEVPPDYDKHNPEQKQIYRFVRTLFSAAQLTAECAIVTLVYLERLLTYAEIDICPANWKRIVLGAILLASKVWDDQAVWNVDYCQILKDITVEDMNELERQFLELLQFNINVPSSVYAKYYFDLRSLAEANNLSFPLEPLSRERAHKLEAISRLCEDKYKDLRRSARKRSASADNLTLPRWSPAIIS

Variants of: B1
Settings: with cdk16_human CDK16, Q00536
Sequence of cdk16_human CDK16, Q00536 (Q00536 whole entry): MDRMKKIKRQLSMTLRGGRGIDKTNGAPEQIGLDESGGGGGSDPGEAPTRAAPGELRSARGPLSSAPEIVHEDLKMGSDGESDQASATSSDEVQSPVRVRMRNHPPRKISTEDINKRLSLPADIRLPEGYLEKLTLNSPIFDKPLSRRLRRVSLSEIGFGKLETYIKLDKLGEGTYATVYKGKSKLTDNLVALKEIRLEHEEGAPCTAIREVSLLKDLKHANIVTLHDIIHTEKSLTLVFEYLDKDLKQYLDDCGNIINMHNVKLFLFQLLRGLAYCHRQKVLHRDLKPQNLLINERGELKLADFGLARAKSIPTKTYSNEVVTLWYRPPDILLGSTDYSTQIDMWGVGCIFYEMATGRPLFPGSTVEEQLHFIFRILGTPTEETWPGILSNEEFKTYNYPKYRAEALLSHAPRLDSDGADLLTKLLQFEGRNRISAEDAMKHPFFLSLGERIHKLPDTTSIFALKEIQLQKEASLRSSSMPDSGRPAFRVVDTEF

| effect of a mutation on the interaction | Variant |
| --- | --- |
| decreasing interaction strength | L222A;S224A |

Variants of: B1
Settings: with cdk16_human CDK16, Q00536
Remark: another data set of the same source

| effect of a mutation on the interaction | Variant |
| --- | --- |
| disrupting interaction strength | L222A;S224A |
